B1: P5A-2G9 (full-length IgG) (antibody, V domains shown)
VH: QVQLVESGGGVVQPGRSLRLSCAASGFTFSSYGMHWVRQAPGKGLEWVAVIWYDGSNKYYADSVKGRFTISRDNSKNTLYLQMNSLRAEDTAVYYCARWFHTGGYFDYWGQGTLVTVSS
VL: QPVLTQPPSSSASPGESARLTCTLPSDINVSSYNIYWYQQKPGSPPRYLLYYYSDSDKGQGSGVPSRFSGSKDASANTGILLISGLQSEDEADYYCMIWPSNALYVFGTGTKVTVL
B2: P5A-2F11 (full-length IgG) (antibody, V domains shown)
VH: QVQLVQSGAEVKKPGASVKVSCKASGYTFTSYDINWVRQATGQGLEWMGWMNPNSGNTGYAQKFQGRVTMTRNTSISTAYMELSSLRSEDTAVYYCARYIVVVPAAKGFDPWGQGTLVTVSS
VL: not shown
B3: P5A-2G7 (full-length IgG) (antibody, V domains shown)
VH: QVQLQESGPGLVKPSETLSLTCTVSGDSVSSGSYYWSWIRQPPGKGLEWIGYIYYSGSTNYNPSLKSRVTISVDTSKNQFSLKLSSVTAADTAVYYCARERCYYGSGRAPRCVWFDPWGQGTLVTVSS
VL: QSALTQPASVSGSPGQSITISCTGTSSDVGGYNYVSWYQQHPGKAPKLMIYDVSNRPSGVSNRFSGSKSGNTASLTISGLQAEDEADYYCSSYTSSSTLVVFGGGTKLTVL
B4: P2B-1A1 (full-length IgG) (antibody, V domains shown)
VH: QVQLQESGPGLVKPSETLSLTCTVSGGSISSYYWSWIRQPPGKGLEWIGYIYYSGSTNYNPSLKSRVTISVDTSKKQFSLKLSSVTAADTAVYYCARLERDWPLDAFDIWGQGTMVTVSS
VL: QSALTQPASVSGSPGQSITISCTGTSSDVGGYNYVSWYQQHPGKAPKFMIYDVSKRPSGVSNRFSGSKSGNTASLTISGLQAEDEADYYCSSYTSNNTFAFGGGTKLTVL
B5: P5A-1B6 (full-length IgG) (antibody, V domains shown)
VH: QVQLVESGGGVVQPGRSLRLSCAASGFTFSSYAMHWVRQAPGKGLEWVAVISYDGSNKYYADSVKGRFTISRDNSKNTLYLQMNSLRAEDTAVYYCARDGQAITMVQGVIGPPFDYWGQGTLVTVSS
VL: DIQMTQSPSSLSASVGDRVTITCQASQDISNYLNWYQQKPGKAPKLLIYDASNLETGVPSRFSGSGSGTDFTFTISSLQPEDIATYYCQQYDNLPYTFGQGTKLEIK
B6: P5A-3C12 (full-length IgG) (antibody, V domains shown)
VH: QITLKESGPTLVKPTQTLTLTCTFSGFSLSTSGVGVGWIRQPPGKALEWLALIYWDDDKRYSPSLKSRLTITKDTSKNQVVLTMTNMDPVDTATYYCAHSLFLTVGYSSSWSPFDYWGQGTLVTVSS
VL: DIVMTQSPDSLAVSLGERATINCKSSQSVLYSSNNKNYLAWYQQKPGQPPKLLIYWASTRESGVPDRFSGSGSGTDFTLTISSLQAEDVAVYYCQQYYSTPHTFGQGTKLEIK
B7: P2B-1A10 (full-length IgG) (antibody, V domains shown)
VH: EVQLVESGGGLIQPGGSLRLSCAASGFTVSSNYMSWVRQAPGKGLEWVSVIYSGGSTYYADSVKGRFTISRDNSKNTLYLQMNSLRAEDTAVYYCAREGPKSITGTAFDIWGQGTIVTVSS
VL: DIQMTQSPSSLSASVGDRVTITCQASQDISNYFNWYQQKPGKAPKLLIYDASNLETGVPSRFSGSGSGTDFTFTISSLQPEDIATYYCQQYDNLPMYTFGQGTKLEIK
B8: P5A-1B8 (full-length IgG) (antibody, V domains shown)
VH: EVQLVESGGGLIQPGGSLRLSCAASGFTVSSNYMSWVRQAPGKGLEWVSVIYPGGSTFYADSVKGRFTISRDNSKNTLYLQMNSLRAEDTAVYYCARETLAFDYWGQGTLVTVSS
VL: DIQLTQSPSFLSASVGDRVTITCRASQGISSYLAWYQQKPGKAPKLLIYAASTLQSGVPSRFSGSGSGTEFTLTISSLQPEDFATYYCQQLNSYPPAFGGGTKVEIK
B9: P5A-1B9 (full-length IgG) (antibody, V domains shown)
VH: QVQLQESGPGLVKPSETLSLTCTVSGGSISSYYWSWIRQPPGKGLEWIGYISYSGSTNYNPSLKSRVTISLDTSKNQFSLKLSSVTAADTAVYYCASNGQYYDILTGQPPDYWYFDLWGRGTLVTVSS
VL: not shown

The binders below were run against T1, SARS-CoV-2 RBD (residues Arg319–Phe541) (SARS-CoV-2, UniProt P0DTC2) (assay: SPR). Conditions: both partners purified.

Question: Which Kd does the source give for B1 here?
Answer: 6.98 nM

Question: B2 was tested. Which Kd did it give?
Answer: 5.33 nM

Question: With B3 as the binder, how does the Kd read?
Answer: 3.55 nM

Question: B4 was tested. Which Kd did it give?
Answer: 27 nM

Question: For B5, which Kd is on record?
Answer: 1.01 nM

Question: Which Kd does the source give for B6 here?
Answer: 1.03 nM

Question: With B7 as the binder, how does the Kd read?
Answer: 50.8 nM

Question: How did the Kd turn out when B8 was run?
Answer: 1.09 nM

Question: With B9 as the binder, how does the Kd read?
Answer: 0.75 nM

These binders were tested against T1, SARS-CoV-2 RBD (residues Arg319–Phe541) (assay: cell-based or functional assay). Conditions: not given.

Question: For B1, which other is on record?
Answer: 84.9%

Question: Which other does the source give for B2 here?
Answer: 56.2%

Question: Which other does the source give for B3 here?
Answer: 57.2%

Question: With B4 as the binder, how does the other read?
Answer: -9.7%

Question: How did the other turn out when B5 was run?
Answer: 76%

Question: How did the other turn out when B6 was run?
Answer: 54.5%

Question: For B7, which other is on record?
Answer: 81.8%

Question: With B8 as the binder, how does the other read?
Answer: 79.6%

Question: Which other does the source give for B9 here?
Answer: 43.8%
